Consider one molecule from US7871610B2, “Antibodies to Tie1 ectodomain” (Dyax Corp., priority 2003, dated 2011).

In one assay the target is T1, mouse Tie1 (Mus musculus, UniProt Q06806).
T1 construct: host or cells: mouse endothelial cell lines MS1, Le-2, Bend3, SVEC
Put plainly: Flow cytometry binding to mouse endothelial cell lines. Conditions: MS1, Le-2, Bend3, SVEC and Tie-1 transfected Le-2 cells; biotinylated antibody. As for the experimental part:
Specific binding of the Tie-1 antibodies and of control Mabs to mouse endothelial cells was measured by flow cytometry analysis (FACSscan, Becton Dickinson, Oxnard, Epics, Coulter). Mouse endothelial cell lines MS1, Le-2, Bend3, SVEC (ATCC, Rockville) and Tie-1 transfected Le-2 cells were stained. Cell staining was modified from existing protocols. About 200,000 cells were used in each experiment: after trypsinization, cells were washed one time in PBS and resuspended PBS, 10% Heat inactivated human serum (incubation buffer). To test specificity, antibodies were incubated at different dilutions for 1 h at room temperature. Cells were spun down by centrifugation for 3 min at 611 g. Between incubations cells were washed twice with PBS. […] After the final incubation step bound antibodies were detected by means of flow cytometry on a FACSCan and Epics Altra (Becton Dickinson, Oxnard, Coulter) and results analyzed.
Intracellular Tie-1 was measured as described above, except for the addition of Saponin to the incubation buffer to a final concentration of 0.1% during incubations. […] The binding pattern in mouse cell lines detected by flow cytometry is different from the binding pattern in HUVEC in that in mouse cells there is a greater cell surface staining than that compared to primary human endothelial cell lines.

Another assay addresses T2, Mouse Tie 1-Fc (Mus musculus, UniProt Q06806).
T2 sequence (Q06806 23-755 limits assumed): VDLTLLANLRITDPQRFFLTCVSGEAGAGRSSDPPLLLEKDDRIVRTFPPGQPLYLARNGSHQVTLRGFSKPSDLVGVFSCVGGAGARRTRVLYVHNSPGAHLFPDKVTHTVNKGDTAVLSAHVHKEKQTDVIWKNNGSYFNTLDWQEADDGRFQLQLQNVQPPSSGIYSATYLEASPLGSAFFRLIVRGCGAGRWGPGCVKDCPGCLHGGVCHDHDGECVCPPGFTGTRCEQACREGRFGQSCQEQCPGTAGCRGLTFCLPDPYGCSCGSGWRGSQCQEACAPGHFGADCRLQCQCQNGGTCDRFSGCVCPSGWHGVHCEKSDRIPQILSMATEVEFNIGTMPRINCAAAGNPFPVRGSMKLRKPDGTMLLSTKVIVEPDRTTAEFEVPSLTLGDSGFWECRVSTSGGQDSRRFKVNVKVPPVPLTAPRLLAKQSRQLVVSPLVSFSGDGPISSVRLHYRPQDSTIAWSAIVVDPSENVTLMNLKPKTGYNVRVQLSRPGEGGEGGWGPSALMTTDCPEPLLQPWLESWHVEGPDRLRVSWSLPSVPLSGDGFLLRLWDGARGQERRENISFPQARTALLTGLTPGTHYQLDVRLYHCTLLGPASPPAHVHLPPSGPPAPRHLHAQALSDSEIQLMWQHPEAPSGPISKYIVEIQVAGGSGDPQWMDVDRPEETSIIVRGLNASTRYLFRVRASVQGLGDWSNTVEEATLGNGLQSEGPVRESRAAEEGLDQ
Put plainly: BIAcore, E3 Fabs on mouse Tie1-Fc. The format is binding. The following applies: Fab, mouse Tie1-Fc. As for the experimental part:
Mouse Tie 1-Fc antigen (0.5 mg/ml stock) was biotinylated using established procedures and after dilution 1/100 fold in HBS this was then used for capturing to a streptavidin chip. This was coated to a resonance value of 740RU. All analysis was performed in HBS buffer. The parental Fab E3 0.587 mg/ml (11740 nM) was diluted 1/587 in HBS+BSA to obtain a stock of 20 nM and the germlined Fab E3 0.025 mg/ml (500 nM) was diluted 1/25 in HBS+BSA to obtain a stock of 20 nM. Serial dilutions were made of each Fab preparation to obtain 10 nM, 5 nM, 2.5 nM, and 1.25 nM. For the association phase samples were injected at 30 μl/min for 4 minutes using kinject program. This was followed by a 10 minutes dissociation phase, any remaining sample was stripped from the Tie-1 Fc surface at a flow of 50 μl/min with a single injection of 50 mM NaOH+1 M NaCl for 18 seconds. All samples were run and analyzed in duplicate.
Sensorgrams were analyzed using the simultaneous ka/kd fitting program with 1:1 model in the BIAEVALUATION™ software 3.1.
Background: In SPR one partner is held on a chip, and binding of the other changes the refractive index at the surface.

Another assay concerns the target Tie1 (Homo sapiens, UniProt P35590). In words: Confocal microscopy staining of HUVEC. The format is binding. Details: endogenous in cells; host or cells: HUVEC. Conditions: biotinylated antibody 10 μg/ml, fixed cells. How it is done: We analyzed the staining pattern of E3 in HUVECS using confocal microscopy. HUVEC were trypsinised, washed with PBS and spotted at a density of 60 000 cells on a gelatine coated microscope slide and incubated for 24 hours in a humidified incubator at 37° C. Cells were air dried and fixed with 4% paraformaldehyde for 20 minutes at room temperature. The slides were washed with PBS. The slides were incubated with 10% Heat inactivated human serum (incubation buffer).
For measuring specific binding to Tie-1, biotinylated antibody E3 and biotinylated negative control antibody A2 were used at a concentration of 10 μg/ml and incubated for 1 hour at room temperature. Slides were washed twice with PBS. Then, Strepatvidin-R-phycoerythrin (Dako, Glostrup, Denmark) was added and incubated for 1 hour at room temperature. After the last incubation and washing detection of bound antibodies was performed by means of confocal microscopy.

Tie1, sequence (P35590 22-1138): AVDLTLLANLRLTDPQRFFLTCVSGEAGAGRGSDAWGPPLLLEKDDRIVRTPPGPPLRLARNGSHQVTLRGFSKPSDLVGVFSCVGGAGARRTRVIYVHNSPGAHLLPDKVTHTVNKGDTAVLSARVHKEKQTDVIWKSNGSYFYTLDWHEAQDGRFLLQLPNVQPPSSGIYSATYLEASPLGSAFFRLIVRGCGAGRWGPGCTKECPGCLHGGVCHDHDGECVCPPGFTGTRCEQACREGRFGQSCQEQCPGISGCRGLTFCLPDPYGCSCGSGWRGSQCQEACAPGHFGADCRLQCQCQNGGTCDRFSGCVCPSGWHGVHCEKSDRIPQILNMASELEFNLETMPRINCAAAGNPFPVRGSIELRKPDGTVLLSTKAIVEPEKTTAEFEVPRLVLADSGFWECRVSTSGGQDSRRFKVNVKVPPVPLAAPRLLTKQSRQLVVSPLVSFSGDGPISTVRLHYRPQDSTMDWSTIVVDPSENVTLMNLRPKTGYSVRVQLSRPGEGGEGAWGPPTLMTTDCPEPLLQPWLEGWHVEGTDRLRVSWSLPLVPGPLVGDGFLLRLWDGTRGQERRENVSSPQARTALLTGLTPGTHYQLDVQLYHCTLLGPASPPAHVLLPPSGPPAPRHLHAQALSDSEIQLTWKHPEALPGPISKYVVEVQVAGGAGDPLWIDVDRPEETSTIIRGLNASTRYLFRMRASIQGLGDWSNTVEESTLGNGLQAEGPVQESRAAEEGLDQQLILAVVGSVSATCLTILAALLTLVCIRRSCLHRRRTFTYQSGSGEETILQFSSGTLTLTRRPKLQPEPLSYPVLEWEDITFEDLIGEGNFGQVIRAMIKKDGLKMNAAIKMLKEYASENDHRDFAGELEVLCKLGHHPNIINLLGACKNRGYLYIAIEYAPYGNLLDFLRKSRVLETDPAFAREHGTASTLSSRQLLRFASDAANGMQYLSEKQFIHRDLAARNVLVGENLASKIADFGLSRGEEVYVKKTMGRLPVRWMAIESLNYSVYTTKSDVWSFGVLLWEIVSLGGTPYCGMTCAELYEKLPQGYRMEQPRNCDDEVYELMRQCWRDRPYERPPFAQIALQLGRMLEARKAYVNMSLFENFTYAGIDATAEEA
T1 sequence (Q06806 23-1134): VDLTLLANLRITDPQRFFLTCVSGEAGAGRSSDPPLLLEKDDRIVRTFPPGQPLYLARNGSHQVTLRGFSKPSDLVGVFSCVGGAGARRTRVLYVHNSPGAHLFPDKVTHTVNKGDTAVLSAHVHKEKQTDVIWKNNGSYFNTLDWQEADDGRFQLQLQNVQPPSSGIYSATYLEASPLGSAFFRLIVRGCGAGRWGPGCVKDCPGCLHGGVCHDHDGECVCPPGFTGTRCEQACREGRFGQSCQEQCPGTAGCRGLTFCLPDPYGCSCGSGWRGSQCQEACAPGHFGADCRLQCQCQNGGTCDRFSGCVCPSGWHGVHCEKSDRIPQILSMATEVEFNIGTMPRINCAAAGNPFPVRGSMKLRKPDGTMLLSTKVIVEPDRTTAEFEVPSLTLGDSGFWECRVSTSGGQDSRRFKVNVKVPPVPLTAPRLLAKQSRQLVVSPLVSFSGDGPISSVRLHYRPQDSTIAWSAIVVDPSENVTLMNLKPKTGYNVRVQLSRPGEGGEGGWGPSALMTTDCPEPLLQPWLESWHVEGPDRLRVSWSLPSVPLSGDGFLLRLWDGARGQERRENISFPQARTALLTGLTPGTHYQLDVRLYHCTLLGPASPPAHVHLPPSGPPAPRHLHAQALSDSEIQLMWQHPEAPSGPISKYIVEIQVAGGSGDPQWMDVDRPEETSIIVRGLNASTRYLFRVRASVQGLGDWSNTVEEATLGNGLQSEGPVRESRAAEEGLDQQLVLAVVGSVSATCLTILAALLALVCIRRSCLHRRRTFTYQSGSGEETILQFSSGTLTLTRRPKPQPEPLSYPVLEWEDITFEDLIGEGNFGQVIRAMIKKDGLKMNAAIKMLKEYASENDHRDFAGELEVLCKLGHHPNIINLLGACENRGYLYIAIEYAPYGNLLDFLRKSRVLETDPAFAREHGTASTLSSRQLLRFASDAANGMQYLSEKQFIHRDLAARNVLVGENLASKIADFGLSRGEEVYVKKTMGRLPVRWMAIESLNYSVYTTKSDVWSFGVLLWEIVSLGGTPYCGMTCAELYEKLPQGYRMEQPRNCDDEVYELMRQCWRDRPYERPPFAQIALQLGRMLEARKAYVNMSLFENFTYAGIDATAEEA

B1: E3: human anti-Tie1 antibody from Fab phage library; HC SEQ ID NO:114, LC SEQ ID NO:116 (antibody, V domains shown)
VH: EVQLLESGGGLVQPGGSLRLSCAASGFTFSMYGMVWVRQAPGKGLEWVSVISPSGGNTGYADSVKGRFTISRDNSKNTLYLQVNSLRAEDTAVYYCARAPRGYSYGYYYWGQGTLVTVSSASTKGPSVFPLAPSSKSTSGG
VL: DIQMTQSPLSLSASVGDRVTITCRASQGIGHYLAWYQQKPGKVPKLLIYTASTLQSGVPSRFSGSGSGTDFTLTINSLQPEDVATYYCQQFNSYPHTFGQGTRLDIK
modifications: Synthetically generated peptide
B1: in the assay with mouse Tie1, the “binding to mouse endothelial cell lines” value is reported as “binds to mouse endothelial cell lines”. Also, the “effect of germlining on binding activity” value with Mouse Tie 1-Fc is on record as “minimal effect on the binding activity”. In the assay with Tie1, the “binding to HUVEC by confocal microscopy” value is given as “binds specifically to HUVEC” and the “localisation of staining in HUVEC” value is “pre-dominantly located inside of the cell”.
